{
  "source": "patent US20210063414A1",
  "about": "“METHODS FOR PREVENTING AND/OR TREATING BONE LOSS CONDITIONS BY MODULATING IRISIN” (Dana-Farber Cancer Institute, Inc., priority 2018, published 2021)",
  "biological_target": "T1, MLO-Y4 cell surface proteins (Mus musculus, UniProt Q9D3P1)",
  "T1 construct": "endogenous in cells; host or cells: MLO-Y4",
  "T1 sequence (Q9D3P1 1-638)": "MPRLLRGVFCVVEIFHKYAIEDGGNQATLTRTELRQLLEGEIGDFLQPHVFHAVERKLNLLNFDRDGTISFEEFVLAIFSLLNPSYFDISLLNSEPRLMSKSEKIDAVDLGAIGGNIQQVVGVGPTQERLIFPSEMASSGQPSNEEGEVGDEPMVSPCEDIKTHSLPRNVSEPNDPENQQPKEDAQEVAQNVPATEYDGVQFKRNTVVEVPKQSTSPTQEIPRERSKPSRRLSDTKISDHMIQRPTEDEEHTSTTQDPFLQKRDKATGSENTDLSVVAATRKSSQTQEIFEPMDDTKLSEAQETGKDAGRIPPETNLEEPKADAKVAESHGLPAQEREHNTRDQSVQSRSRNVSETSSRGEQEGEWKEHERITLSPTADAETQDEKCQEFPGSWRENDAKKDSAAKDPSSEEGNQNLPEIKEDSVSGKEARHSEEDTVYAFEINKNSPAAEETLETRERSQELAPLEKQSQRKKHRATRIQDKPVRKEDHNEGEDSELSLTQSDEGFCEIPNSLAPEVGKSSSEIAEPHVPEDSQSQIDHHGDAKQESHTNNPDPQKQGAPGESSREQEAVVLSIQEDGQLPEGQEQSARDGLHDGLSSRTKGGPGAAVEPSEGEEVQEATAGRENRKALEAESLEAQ",
  "test": "Crosslinking/co-immunoprecipitation/mass spectrometry (TMT quantitative proteomics) to identify irisin receptors",
  "assay_type": "binding",
  "details": "co-precipitated protein Tchhl1 (TCHL1_MOUSE)",
  "method_in_brief": "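Mouse MLO-Y4 cells were switched to serum-free FreeStyle medium for 4 h, chilled, then exposed to 10 nM His-tagged irisin (or adipsin as control) for 20 min. Cells were crosslinked with 1.5 mM DTSSP (30 min, ice), and bound proteins were pulled down on Ni-NTA and eluted with 250 mM imidazole. Eluates were separated by SDS-PAGE, trypsin-digested in gel, TMT 6-plex labelled and quantified by MS3-based LC-MS/MS on an Orbitrap Fusion Lumos.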",
  "data": [
    {"molecule": "irisin: secreted cleaved form of FNDC5; recombinant human/mouse irisin with C-terminal his tag produced in HEK293 cells (protein, left off: small tags and cut ends, secreted cleaved form of FNDC5; recombinant human/mouse irisin with C-terminal his tag produced in HEK293 cells) DSPSAPVNVTVRHLKANSAVVSWDVLEDEVVIGFAISQQKKDVRMLRFIQEVNTTTRSCALWDLEEDTEYIVHVQAISIQGQSPASEPVLFKTPREAEKMASKNKDEVTMKE", "values": [
      {"measurement": "TMT signal-to-noise ratio", "value": 23.5307},
      {"measurement": "irisin/adipsin TMT signal-to-noise ratio", "value": 0.013}
    ]}
  ]
}
